{"source": "the DeepSol protein solubility set"}
{"assay": "soluble on expression in E. coli; label from the status in PepcDB or PDB records"}
{"sequence": "MQQNTSLYDSLNVTAAASTSEIKKAYRNAALKYHPDKNNHTEESKRKFQEICQAYEILKDNRLRALYDQYGTTDEVLIQEQQAQAQRQQAGPFSSSSNFDTEAMSFPDLSPGDLFAQFFNSSATPSSNGSKSSFNFSFNNSSTPSFSFVNGSGVNNLYSSSAKYNSNDEDHHLDRGPDIKHNLKCTLKELYMGKTAKLGLNRTRICSVCDGHGGLKKCTCKTCKGQGIQTQTRRMGPLVQSWSQTCADCGGAGVFVKNKDICQQCQGLGFIKERKILQVTVQPGSCHNQLIVLTGEGDEVISTKGGGHEKVIPGDVVITILRLKDPNFQVINYSNLICKKCKIDFMTSLCGGVVYIEGHPSGKLIKLDIIPGEILKPGCFKTVEDMGMPKFINGVRSGFGHLYVKFDVTYPERLEPENAKKIQNILANDKYIKAERSTMETADSDCYCDLEKSYDSVEEHVLSSFEAPNLNNEVIEDDDLGDLINERDSRKRNNRRFDESNINNNNETKRNKYSSPVSGFYDHDINGY", "soluble on expression in E. coli": "not soluble"}
{"sequence": "MQREDILGEALKLLETQGIADTTLEMVAERVNRPLDTLQRFWPDKEAILYDALRYLSQQVDIWRRQLLLDETLSAEQKLLARYSALSECVSNNRYPGCLFIAACTFYPDPTHPIHQLANQQKRAAHDFTHELLTTLEIDDPAMVARQMELVLEGCLSRMLVNRSQADVDTAQRLAEDILRFAQCRQGGALT", "soluble on expression in E. coli": "soluble"}
{"sequence": "MQRLSGLDASFLYLETSTQLLHVCGVIVLDVSTVPGGYTFAQLKAELGARTEAIPSFRRKLQDSKFNLDHPVWVEDTDFDIDRHCHRVALPAPGGRDELAELCGDIAGIPLDRARPLWEMWVIEGLEDGSVAVMSKMHHAGVDGITGANMMAQLCGLEPDAPRPGPDDSAESAGQASTLDIAVGGLLAVASRPAKLLRIVPQSLTLLPRWIGRARRGAAMPAPFTAPRTSLNGTLTSHRNLAFTQLDLEKVKTVKDAFDVKVNDVVLALCSGALRKYLQDRRELPDKSLVAIVPVSVHGKSDRPGTNQVSGMFTQLGTQIEDPAERLLAIGEHNSTSKEHNETLGASLLQDWSQFAGQAVFGTAMRLYSTLGLAERHPVVHNLVISNVPGPSVPLYFLGALIKAMYPLGPIFHGAGLNVTVMSLNGQLDVGLMSCPELAPHLWDLVDAFPAALDELVEAAGNRS", "soluble on expression in E. coli": "not soluble"}
{"sequence": "MQSIGQVLTKASERLEERLAAVLAQYTPAYFRERIPELNELDATDEMIQKAIIQLMDRAKQIEECRGCTGFANCRRPPGQEGMVMHLTVENGHISSLHSMCDQFHAYHQEQRWQRLLALSGKAANDKNFTFDNFPDAQKKRHRKLCGYIYQFAQQFEPGGSDKGVYIYGPPGTGKTHLLLAMVNRLEERRVPVIFIRTDAIFRRMRGMLSAKESLDSLIEAYCTTPVLVIDEFAQEAGTEFTIDVMFEVVNARFANSLPTFATSNYAPDQVYEKAMRKHRLEEKVEAIRSRLNQMMKHAFMDGEDGRKKDRETF", "soluble on expression in E. coli": "not soluble"}
{"sequence": "MQSISNCPIGLVSKNTINSASTIAEWVACPWKYINVVGSGRYVSNKPDKITRYDLLKAAQEAEMQELLTRNDMKGRHKRNKKSKIALETIAEENSSTESLF", "soluble on expression in E. coli": "not soluble"}
{"sequence": "MQTEGAQEMVLQDAVAGIYKKLVVDASGTQLLGAILVGDNSDYDALLHCYLNKTVLPDHAANLLFDTGMLDGEMPDSAIICSCHNVTKGDLVAEIQAGTTNLTDLKANTKAGTGCGGCSNMVKSVLDTQLAAMGVEVNNHLCEHFELSRQEMFHICQVEQIKDFDTLIALHGKGHGCDICKPTAASVFASLWNEHIMEPQHQSLQDSNDAFMANLQKDGSYSIVPRVPGGEITPDKLIVLGEVAQQYDLYTKITGGQRVDLFGAQLEQLPEIWQTLIDAGFETGHAYGKSVRTVKSCVGSTWCRYGVDDSVGLAIELENRYKGLRAPHKLKFAVSGCTRECAEAQSKDIGVIATENGWNLYVCGNGGMRPRHADLFASDLSKSELITMIDRVLMFYVSTADRLQRTSVWMENMEGGLDYLKQVILDDSLNLCDSLDEQMARVVDTYQCEWKSTLDNPQKLQRFRPFLNSTSGSKVLPYQRVRGQRIPVKQEV", "soluble on expression in E. coli": "not soluble"}
{"sequence": "MQTQKPVFSEVTVHDPSIIKANGTYYVFGSHLASAKSTDLMNWTQISSSVHDGNPLIPNVYEELKETFEWAESDTLWAPDVTQLEDGKFYMYYNACRGDSPRSALGLAVADDIEGPYKNKGIFLKSGMDGISNDGTPYDATKHPNVVDPHTFFDQNGKLWMVYGSYSGGIFILEMDKKTGFPLPGQGYGKKLIGGNHSRIEGAYILYHPETQYYYLYMSFGGLAADGGYNIRVARSKNPDGPYYDAEGHAMIDVRGKEGTLFDDRSIEPYGVKLMGNFSFNNKNGYVSPGHNSAFYDEKSGKSYLIFHTRFPGRGEEHEVRVHQLLMNKQGWPVVAPHRYAGEKLEKVKKSDVIGDYELVRHGKDISADIKESKEIRLNQNGKITGAVAGTWKNTGHNKIELKIDGKTYDGVFLRQWDAASERKVMTFSALSREGDAVWGSSLKRAEFLEHHHHHH", "soluble on expression in E. coli": "soluble"}
{"sequence": "MQVCRQWVTLSLYNNGKWPKMKYQQLENLECGWKWQYLINKWKDGEPVTRYIDKSEIEAAVQKLRAIEHEPTHVLSWIEEHMSSELDNKLKQAIRAKRKRHFNAEQIHTRKKSIDLDYRVWEKLSLKANELGCTLSDAIEYLLSEASRSEKASKTVNSLKEDLSRLLAE", "soluble on expression in E. coli": "not soluble"}
{"sequence": "MQVIHQYSNKGGKYQNRYDVSILVNGLPLVHVELKKRGVAIREAFNQIKRYKRDSFSAEDGLFDFVQIFVISNGTSSKYYSNTTRIAQLEKNHKADTFEFTNYWADSKNHNIEDLMDFAKAFFAKRSLLNVLTCYCVFTSEEVLLVMRPYQIVAAERILEKIKTAQNSKTKNQSKGYIWHTTGSGKTLTSFKSATLAKELESVSKVLFVVDRKDLDYQTMKEYDKFQKDCANSNTSTKILKEQLEDSNAKIIITTIQKLDKFVKSHKGHAIFNEEVVMIFDECHRSQLGSMHQAITKAFKKYHLFGFTGTPIFAANCDKNNPLGTTEQKFGKCLHQYTIIDAIRDKNVLPFRVEYHNTIKAKEDIKDNKVRAVDEKNALLDTRRIKEITKCILERFNQATKNKKFNSILACSSIEALKKYYQAFKEEKHDLKIAAIFSYSANEEIDTLEDENNESACRLDKSSRDFLEGAIADYNGMFGVSFDTSDQKFQSYYKDLSQKMKERKIDLLMVVNMFLTGFDATRLNTLWVDKNLKYHGLIQAFSRANRILDSVKTHGNIVCFRDLEQDLNDALMLFGNKDAQSIALLRKYEDYLKGYTDNNKEYEGYEGLIKRLLTEFPLKEPIVSESQKKDFIKLFGKILKLENILNSFENFKKDDYINPRDFQDYQSKYLDFYDAMRSEKGKDKEEINDDLIFEIELIKQVEVNIDYILNLIEEFAKEHGVEIQGVKTKIEPIINSSIELRNKKDLIMDFIDKYNKDQEVHAHFQDYIHQKREEEFQNIIEENRLNEEKAYSFMQHAFKGGEISFSGTEFPKIIEEKPSMFGKNSRYQEVKEKVAASLSRFFHRFCDLTSAIFKKNEVKKDEVNEK", "soluble on expression in E. coli": "not soluble"}
{"sequence": "MQYHYQWLTPFDAKRTTVVCLHGFTGTLATFAAVFPSQTPYNVLGIDLPGHGATASLVAPERYTMKQVCHDIAELTESLNLPCFCLLGYSMGARTALGFALHYPQKVQHLLLESGSPGLATAAERQARICQDHRLAERLLEEPLVDFIDFWQELPLFQTQKALSVAQQMAIRQERLSQSAFGLVSSLWYMGTGAQESYWERLAELQPIPTDLLVGGEDQKFIGIAKKMQARQPLLRLTIFPEAGHCIHLEQPTIFYEKVTALLEGAI", "soluble on expression in E. coli": "not soluble"}
{"sequence": "MQYSMGIDAGGTYTDSIIIRDSDGKVMDSNKALTTYPDLLAGIKNSIDGLDEQYLKDVKMVSVSTTLATNTILEKNGYPVGLILVGDYEVPERMQAEYYTVVKGGHDHHGAELTSLDMEAVEAFVNKVKDRVSAFAVSSYFSIRNPAHELAIKARLKELGFSVVCGHELSLDLGAYERGITAYLNAQLIPIASQFILSIREEIRRRGMDARLLMLKCDGSVVGINEALEKPIESIFSGPAASLVGASHLSGLETCAVIDVGGTSTDVSMLENGLPELCSEGAVVGGWQTKVKAIRMETSAMGGDSHVWVKNMKINIGPRRVIPLCVAAVKYPGFLEILKKGRIPGTMHLEENIQPTKFFIRTGLEASNLGSYEKELFDRIGDTPASLNDIFWETQKTLSPGLLDSLLRKRLIQAIGFTPTDALHVLGEYRGWNTEASIAGAKLLERYTHKDYIESARALEHHHHHH", "soluble on expression in E. coli": "not soluble"}
{"sequence": "MRAAFRTLGCKVNQVETEALLGFLKALEPEVVPLEAGGADLVVINSCAVTTTAEADTRKEVRRARRYNPHAFIVVTGCYAELAPEVLKELGADAVVPNARKAELPRVILERFGLPSDPITTPPNEFWGAGERGLLNSRVRAFLKVQDGCQAGCAYCIIPRLRGKERHRDHREALAEAEALLRMGIKEIVLTGVRLGSYKGHPRGLAGLVEDLYHLGAKVRLSSIEPEDTGEDLLKVIGRYAPEVRPHLHLSLQTGSDRLLKLMGRRYDKAYYRELVQRAYDLIPGFALTTDVIAGLPTETEEEHRETLAFLEELRPTRVHAFTYTPRPKTRAASMPQVPPEVRKRRTKELIALAQRLAEERIRPRLGERVEVLVERVQGGEALGHTPDYYEARLEGEARPGETVWARVHGVEGYVLLGRVEGVKEGARGPLELPVR", "soluble on expression in E. coli": "soluble"}
{"sequence": "MRAEVKEICKALHLAYIADRFEEVRFETKEQFLRDVLALELSCCQEAKQARLIKKAKFRELKWLKDYEWSGHIHWPATTSREELCDLRFLERKQNVLLLGSPGTGKTHLATALGIQACQQGHEVRFFRVADLVAQLEEALKNGTLGRLKRSLDTCELLILDELGYVPFQKQGSELLFHIIADCYERKSVMVTSNLEFGQWNRVFGDNRLTAALVDRLVHHAHILAFTGESYRLRNALSAIQPSSASGLEP", "soluble on expression in E. coli": "not soluble"}
{"sequence": "MRASPTSPPEQVVVDASAMVDLLARTSDRCSAVRARLARTAMHAPAHFDAEVLSALGRMQRAGALTVAYVDAALEELRQVPVTRHGLSSLLAGAWSRRDTLRLTDALYVELAETAGLVLLTTDERLARAWPSAHAIG", "soluble on expression in E. coli": "soluble"}
{"sequence": "MRCPFCGAEDTSVVDSRISEEGARIRRRRRCVECEKRFTTYETVELRFPQVIKQDGNRVEFNREKLYTSFARALHKRPVPTGQVDAAIERILQKLLGSGVQEISSRTIGEWVMQELYSLDKVAYIRFASVYRSFEDVGDFQEVIREVQSSPQNGDGPSS", "soluble on expression in E. coli": "not soluble"}
{"sequence": "MRDIVIIGHKAKTSGDFSLNDLPGSAGRMDILCRCVSSALFLSFGMRRDVNVHLLLLGEPDPGKIIRFEGLHLRYLNPDERSSGSLIQKALLKNAAGQDIRSTPGVWTRTGDLNSLLASFEGRTLLYLREDGKDFREIAREIQDPVFILGDHTGVTEEEEKQLLEAGAQVISVGPISLHSNHCITLIHNELDRAEAERGEIPGGNISRPED", "soluble on expression in E. coli": "not soluble"}
{"sequence": "MREAMYWKPLGDGRVRCELCPLRCIIDEGKRGSCKIRINKGGKLYTLNYGKVSSIALDPIEKKPLFHFWPGSCALSIGTVGCNMHCKHCQNWEISQADESFPYLQDATPEAIVSLAKHYECESIAYTYNEPTIWYEFVLDTAKLARKEGLNNILVTNGYINEEPFRELAPYIDAMNIDIKAFDDKFYMKIASVPSGEPSRRIAEIAKKEFKIHVELTYLIIPTLNDKEEEIREFARWVVENLGDDTPVHFSRFFPHYKLLNLPPTPIETLEKAYKIAKEEGLKFVYLGNVPGHPGENTYCPSCGKLLIERWGFDIIRYDIVDGKCKYCGEKIPIVGKYQKKKYRGMWW", "soluble on expression in E. coli": "soluble"}
{"sequence": "MREIINKLNPIIIDKADKKFGVSRILKKYDGKPVYIKDVNGFEVVGNLCSRETLSKIFNVKKEDFIFFMLDAMEKEKEGKLKINNKLKEKYIVEIPENIKNWPIPIYYEKDAGAYITSGVVVVYDKDYGYNLSIHRILVKDDYLVIRMVEQRHLHFLYNKALKEKGYLDVAIVIGVHPAVLLAGSTSADITFDELKFAAALLGGEIGVFELDNGLLVPEAEFIIEGKILPEVDDEGPFVDITGTYDIVRKQPIIKIEKLYRKEKPIFHALLPGGIEHKTLMGMPQEPRILKGVRNTVPTVKNIVLTEGGCCWLHAVVQIEKRTEGDGKNAILAAFASHPSLKHVIVVDDDINIFDINDVEYAIATRVQGDKDIVIISGAKGSSLDPSSDLKNKLTAKVGVDATMSLIKGREHFERAKIPDKLEHHHHHH", "soluble on expression in E. coli": "soluble"}
